Values joined by “and” are separate entries in the source; they are usually repeats but may differ in a detail not shown here. Identical values can stand only once.
How the values were obtained:
[1] = target: firefly luciferase FLUC^(ΔCys, K141C, K491C), biotinylated, Alexa Fluor 647-labelled (firefly) [luciferase: P08659]; experiment: single-molecule TIRF colocalisation and photobleaching step counting; AF647-labelled client (2 μM) with AF488-labelled sHsp or SSB (4 μM) in 50 mM phosphate buffer pH 7.4 at 42°C for up to 7 h; aliquots cross-linked with BS3 (250 μM), diluted to 1-20 nM; biotinylated FLUC or rhodanese held on a NeutrAvidin coverslip; imaged at 20°C; chance colocalisation subtracted
[2] = target: rhodanese^(K135C, K174C) with AviTag, biotinylated, Alexa Fluor 647-labelled (UniProt P00586); experiment: as above
[3] = target: chloride intracellular channel 1, CLIC1^C24 (C59A, C89A, C178A, C191A, C223A), Alexa Fluor 647-labelled (UniProt O00299); experiment: single-molecule TIRF colocalisation and photobleaching step counting; AF647-labelled CLIC (2 μM) with AF488-labelled sHsp (4 μM) in 50 mM phosphate buffer pH 7.4 at 42°C for up to 7 h; aliquots cross-linked with BS3 (250 μM), diluted to 1-20 nM; His-tagged CLIC held through a biotinylated anti-6X His antibody on a NeutrAvidin coverslip; imaged at 20°C; chance colocalisation subtracted
[4] = target: αB-crystallin with an additional C-terminal cysteine (αB-c_(C176)), Alexa Fluor 488-labelled (human) (UniProt P02511); experiment: single-molecule TIRF colocalisation and photobleaching step counting; AF647-labelled client (2 μM) with AF488-labelled sHsp or SSB (4 μM) in 50 mM phosphate buffer pH 7.4 at 42°C for up to 7 h; aliquots cross-linked with BS3 (250 μM), diluted to 1-20 nM; biotinylated FLUC or rhodanese held on a NeutrAvidin coverslip; imaged at 20°C; chance colocalisation subtracted

Q: How did the FLUC subunits in complexes with Hsp27 (1 h) (FLUC subunits/complex) [1] turn out when “Hsp27 cysteine mutant (Hsp27_(C137S,C207)), Alexa Fluor 488-labelled (from UniProt P04792 1-205) (natural protein)” was run?
A: The FLUC subunits in complexes with Hsp27 (1 h) (FLUC subunits/complex) was 5.

Q: And the FLUC subunits per molecule, in and out of complexes with Hsp27 (0 h) [1]?
A: The FLUC subunits per molecule, in and out of complexes with Hsp27 (0 h) was 2 subunits.

Q: And the median FLUC subunits in complexes with Hsp27 (0.6 h) (subunits per complex) [1]?
A: Its median FLUC subunits in complexes with Hsp27 (0.6 h) (subunits per complex) is 20.

Q: What about the percent of client molecules colocalised with the sHsp (after 1 h) [1] of the same substance?
A: Its percent of client molecules colocalised with the sHsp (after 1 h) is 17%.

Q: And the percent of client molecules colocalised with the sHsp (within 0.6 h) [1]?
A: Its percent of client molecules colocalised with the sHsp (within 0.6 h) is 35%.

Q: What about the stoichiometry N ([1]; scale: Hsp27:FLUC) of the same substance?
A: Its stoichiometry N is 0.68 and 1.75 and 1.24.

Q: And the percent of client molecules colocalised with the sHsp (within 0.3 h) [2]?
A: The percent of client molecules colocalised with the sHsp (within 0.3 h) was 40%.

Q: What about the percent of client molecules colocalised with the sHsp (first hour) [3] of the same substance?
A: Its percent of client molecules colocalised with the sHsp (first hour) is 15%.

Q: What about the stoichiometry N ([3]; scale: Hsp27:CLIC) of the same substance?
A: The stoichiometry N was 0.29 and 0.69.

Q: How did the percent colocalised [2] turn out when “single-stranded binding protein (SSB), fluorescently labelled, non-chaperone control (from UniProt P0AGE0 1-178) (natural protein)” was run?
A: The percent colocalised was < 3%.

Q: What does the source list for “αB-crystallin with an additional C-terminal cysteine (αB-c_(C176)), Alexa Fluor 488-labelled (from UniProt P02511 1-175) (natural protein)”?
A: FLUC subunits in complexes with αB-c [1]: 8 subunits; colocalised αB-c subunits per complex (1 h) (subunits/complex) [1]: 13; percent of client molecules colocalised with the sHsp (within 0.3 h) [1]: 40%; stoichiometry N (subunits/oligomer) [4]: 6; percent of client molecules colocalised with the sHsp (within 0.3 h) [3]: 20%

Reference: PMC12203938
